Series [1] in a line: Western blot of 293T lysate, 8 kDa BNP form. The conditions noted are these: glycan lost; control: wild-type pre-proBNP.
Another series can be described thus: Western blot. The conditions noted are these: glycan lost; control: wild-type pre-proBNP. In general terms: A western blot detects proteins with antibodies after separation by electrophoresis.

Regarding “proBNP1-108 (pro-B-type natriuretic peptide): T71A”, the “other: proteolytic processing” value (in series [1]; in “Western blot”) was “increases” in each case.
